Test results reported in the RNAGym collection of RNA variant scans (doi:10.1073/pnas.2313332121).

B1: TPR t1 (parent)
chain: GACCAAUCUGCCCUCAGAGCUCGAGAACAUCUUCGGAUGCAGAGGAGGCAGGCUUCGGUGGCGCGAUAGCGCCAACGUCCUCAACCUCCAAUGCAUCCCACCACAUGAUGAUGCCUGAAGAGCCUUGGUUUUUUG

Variants of: B1
Experiment: polymerase ribozyme fitness, log enrichment relative to wild type (log ratio); higher = more active; in vitro selection for triplet polymerase activity
Method in brief: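 After PCR construction and transcription, each subunit's mutant library from a heterodimeric triplet polymerase ribozyme was annealed with a biotinylated primer, the partner subunit and triplets. Incubation was frozen, at −7 °C, and extended constructs were gel-excised, bound to streptavidin beads and amplified by RT-PCR, in one selection round done in triplicate. Fitness is the logarithm of a genotype's enrichment divided by that of the wild type, from inverse-variance-weighted replicate averages of Illumina-sequenced inputs and outputs. The base of the logarithm is 2, and genotypes needed ≥10 input reads and ≥1 read per output.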

Variant	polymerase ribozyme fitness (log ratio)
G47U C72A C76A	-1.85
G47U G52A C72U	-2.43
G47A C86A G113A	-2.16
G47C C49A A111U	-5.94
G47A A50U C80A C88U A111G	-4.88
G47C G63U C102A U112C G113U	-7.27
G47A C56U U78A C124A U131A	1.41
A46U G60C C114A	-2.44
G47C C56U C73U A105U	-4.05
G47U C85U C97A C124G	-4.97
G47A A50U C53A U78G	-2.33
G47A G60C G71U A119U	-6.29
G47U C101A	-2.91
G47A C53A C97A A119G C123A	-4.34
G47A C56U U112A	0.663
G47C U106A	-1.41
G47A U106A U133A	-1.13
G47A C123G	0.634
A46U U54G C82A G110U	-3.02
A46U C85U	-2.5
G47C C70A U131G	-4.27
G47A C53G C85A C89A A91C C94A U116C G120C	-5.21
A46U C70A	-2.18
A46U C70U	-1.31

Variant	polymerase ribozyme fitness (log ratio)
G47C U55G C72G U106A U129A G135C	-2.99
G47C G61C	-3.43
A46U C98G	-6.78
G47U C76U	-1.17
G47C C73G U81A	-2.91
G47A A119U	-1.02
G47A C73A	-0.495
G47U G71C U125G	-2.97
G47A A50U C73U C124U U132A	-0.0565
A46U G48A G52C G61U G120A	-0.93
G47C C73U C102U G127U	-5.08
G47C C49G U55G C73G C97A A119G	-5.16
A46U C73U G110A	-2.67
G47C G69U A90C C104U	-1.9
G47C G48U	-2.71
G47U G77U C94A U116C A121C	-4.66
A46U G63U A83U G110U	-6.56
A46U G48C G128U	-3.83
G47A C56U A105U	-2.73
A46U G77A G127C	-2.57
G47C U133G	-1.54
G47U U54C C56A C80U C124G	-1.14
G47C A111G	-2.34
G47A C85A G117C A121C	-5.39

Variant	polymerase ribozyme fitness (log ratio)
A46U U78C C82G	-1.76
A46U G57C C79U C85A G120U	-3.83
A46U C73U C82U G93U G110U	-3.63
G47C A121G	0.606
G47U G60U U116C U131A U132C	-1.54
G47C C86A	-0.437
A46U G113A	-1.78
G47C C72U A90G C123U	-1.64
G47A C72G G113U G122A G127U	-4.96
G47U G77U U106G	-3.7
A46U G47A	-2.18
A46U U81C C101G	-4.31
G47A U96A U126C	-3.31
A46U C101U A121U	0.775
G47A G57U G69U G117A U133G	-1.83
G47A C115A	-1.2
A46U C79U A105G	-3.11
G47U G69A	-4.35
G47C U55G C88U	-1.25
A46U G110U	-2.33
A46U G110C	-4.29
G47U G61A	-0.861
A46U C79U	-2.22
G47A G51A U130A	-4.79

Variant	polymerase ribozyme fitness (log ratio)
G47C C70U G120C	-0.515
G47C A90G	-1.06
A46U G47A C72U A121G U130C	0.526
G47A C82U C86G	-0.151
G47U G69C A105U	-5.38
G47A G69A	-3.08
G47C G69A	-4.38
A46U C123U	0.165
A46U C123A	-0.661
A46U U81C A90G C114U	-3.58
G47A C88U C102U	-3.29
G47U G61C A90U G117C	-6.8
G47U G110U U134A	-2.33
G47U C56U U116C	-2.14
G47A C53U A95G	-3.19
A46U C80A	-4.71
G47U C53U	-1.6
G47U C53A	-1.95
G47U C123U	-0.404
G47A C49U G63C	-1.35
G47C G63U	-3.66
G47A U131C	-1.16
G47A G48C G52U C62G C79U	-5.83
A46U C73G U133G	-1.42

Variant	polymerase ribozyme fitness (log ratio)
A46U G120A G135A	-0.18
G47U A66G A118G U130G	-4.13
G47U G51U	-4.87
G47U G60A	-1.93
G47C G61U C114U	-3.31
A46U G61C C79U	-1.59
G47C U78A A105C G120C U130C	-3.11
A46U G48A G52C G61A G120A	-1.18
G47A U54C U59A	-0.546
A46U C70A G120U	-1.59
G47C G113A	-2.47
G47A C89A	-4.43
G47A G58C G71U C79U U130C	-0.309
G47A U112G G117A	-3.86
G47U A95U A108G C123A	-3.06
A46U C64U C114U	-2.92
A46U G65C	-7.92
A46U G65A	-4.9
G47C U126A	-4.53
G47A A50G	-1.37
G47C G63U A90U	-5.15
G47U A100C	-2.83
G47U A100U	-2.31
A46U C73G G77A G127C	-3.61

Variant	polymerase ribozyme fitness (log ratio)
A46U C114A	-2.92
G47A U78C G113U	-4.27
G47U C102U C124A U129C	-2.98
G47A G57C A121U G135U	1.05
G47C G120C G122A G128U	-3.66
G47A G61C U81C C86A U129C	-4.11
A46U G61U A111G	-0.291
A46U G93A	-1.93
G47A G61U G120U G127A	-0.871
G47A A50U U81A	-0.591
G47U G48U	-2.67
G47U G48C	-1.51
A46U G60A	-1.55
G47A C62A C70A	-4.43
A46U U131G	-1.62
G47A	-0.989
G47U	-1.72
G47C	-1.82
G47U C64A	-6.47
G47A U96A	-1.93
G47C G60C U109A U112G	-7.01
A46U C101U U132C	-1.92
G47U C49G C62U C88A A95C C123A	-4.59
G47A C53G C73U C86U	-0.0372

Variant	polymerase ribozyme fitness (log ratio)
G47A C101A	-1.93
G47A C101U	-1.23
G47A G120A	-0.422
G47U C49G C88A A95C C123A	-3.47
G47A G63A C85G	-3.45
G47U G48A A121U	1.01
G47A G113U C114A A121G	-1.76
G47U G63C	-2.32
G47U G63A	-2.11
G47U G63U	-2.33
G47C A90G G117C	-4.53
G47C G113C G127C	-3.94
G47C C73U	-1.61
A46U U59C C101U A121U	0.445
A46U C72U	-1.53
G47A C62A G120A U126A	-3.07
A46U C88U	-1.61
A46U G120A	-0.14
G47U C49G A50C G57U	-1.42
G47U G60A C86A C89U	-0.955
A46U C80U A103U A121U G135A	-5.5
G47A C76G C114G	-3.13
G47C C79U G93U	-3.38
